41 sequences from the nanobody polyreactivity screen of Harvey et al. (2022) can be followed below.

This data set can be described thus: yeast display, Sf9 membrane polyspecificity reagent, FACS + sequencing; frameworks hold sequencing errors. The method, boiled down:
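A nanobody's polyreactivity label depends on the gate it was sorted from. Yeast display cells were stained with 10% biotinylated, detergent-solubilized Sf9 membrane reagent for 1 hour at 4 °C, enriched on streptavidin microbeads and sorted by FACS. The low and high (top ~1%) gates were set on anti-HA fluorescence for expression and streptavidin fluorescence for reagent binding.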
In the case of “QVQLVESGGGLVQAGGSLRLSCAASGRTLGAYAMGWYRQAPGKERELVAAIRWSGSSTYYADSVKGRFTISRDNAKNTVYLQMNSLKPEDTAVYYCAAYWSRVLYGMNYWGQGTQVTVSS”, the “polyreactivity (PSR sort gate)” value was “high polyreactivity”.

As to “QVQLVESGGGLVQAGGSLRLSCAASGRTLGGYAMGWYRQAPGKERELVASITARGGSTYYADSVKGRFTISRDNAKNTVYLQMNSLKPEDTAVYYCATYFARGYNSWGQGTQVTVSS”, the “polyreactivity (PSR sort gate)” value is recorded as “high polyreactivity”.

In the case of “QVQLVESGGGLVQAGGSLRLSCAASGRTLGGYTMGWYRQAPGKERELVAAITTGGSTNYADSVKGRFTISRDNAKNTVYLQMNSLKPEDTAVYYCATDLVFDKRYWYDYWGQGTQVTVSS”, the “polyreactivity (PSR sort gate)” value is “low polyreactivity”.

In the case of “QVQLVESGGGLVQAGGSLRLSCAASGRTLGIYAMGWYRQAPGTERELVAAITLSGSDTYYADSVKGRFTISRDNAKNTVDLQMNSLKPEDTAVYYCAAKTYGGYGKYGYWGQGTQVTVSS”, the “polyreactivity (PSR sort gate)” value is on record as “low polyreactivity”.

As for “QVQLVESGGGLVQAGGSLRLSCAASGRTLGPYTMGWYRQAPGKERELVAVISSRTGRTYYADSVKGRFTISRDNAKNTVYLQMNSLKPEDTAVYYCNAGGRYHAPSGDYWGQGTQVTVSS”, the “polyreactivity (PSR sort gate)” value is “low polyreactivity”.

Turning to “QVQLVESGGGLVQAGGSLRLSCAASGRTLGRYAMGWYRQAPGKERELVAAINVGGGTTHYADSVKGRFTISRDNAKNTVYLQMNSLKPEDTAVYYCAASYRDGHIRHDYWGQGTQVTVSS”, the “polyreactivity (PSR sort gate)” value is recorded as “low polyreactivity”.

Turning to “QVQLVESGGGLVQAGGSLRLSCAASGRTLIDNAKGWYRPAPGKERELVASISITNTYYADSVKGRFTISRDNAKNTVYLQMNSLKPEDTAVYYCNAEARPRGVDVEEAYFRYDYWGHGTQVTVSS”, the “polyreactivity (PSR sort gate)” value is “low polyreactivity”.

Consider “QVQLVESGGGLVQAGGSLRLSCAASGRTLLAYAMGWYRQAPGKEREFVAAISSRGVRTYYADSVKGRFTISRDNAKNTVYLQMNSLKPEDTAVYYCATRGTKSIKDVPGFRYGYWGQGTQVTVSS”, for which the “polyreactivity (PSR sort gate)” value is on record as “high polyreactivity”.

With “QVQLVESGGGLVQAGGSLRLSCAASGRTLLYYAMGWYRQAPGKERELVARISTGGGTSYADSVKGRFTISRDNAKNTVYLQMNSLKPEDTAVFYCAAKRSYRRALLTLDYWGHGTQVTVSS”, the “polyreactivity (PSR sort gate)” value is “high polyreactivity”.

Turning to “QVQLVESGGGLVQAGGSLRLSCAASGRTLLYYAMGWYRQAPGKERELVASISRGSSTNYADSVKGRFTISRDNAKNTVYLQMNSLKPEDTAVYWGQGTQVTVSS”, the “polyreactivity (PSR sort gate)” value was “low polyreactivity”.

Regarding “QVQLVESGGGLVQAGGSLRLSCAASGRTLNDYAMEWYRQAPGKERELVAGITSGDSTYYADSVKGRFTISRDNAKNTVYLQMNSLIPEDTAVYYCAADSDTFYYTGYDYDYWGQGTQVTVSS”, the “polyreactivity (PSR sort gate)” value was “low polyreactivity”.

“QVQLVESGGGLVQAGGSLRLSCAASGRTLPANGMGWYRQAPGKQREFVAAINWRGGITYYADSVKGRFTISRDNSKNTVYLQMNSLNPEDTAVYYCARLRYFLLNGSLRYGTSDRDYWGQGTQVTVSS”: the “polyreactivity (PSR sort gate)” value is listed as “high polyreactivity”.

For “QVQLVESGGGLVQAGGSLRLSCAASGRTLPFYAMGWYRPAPGKERELVAAISRSGARTYYADSVKGRFTISRDHAKNTVYLQMNSLKPEDTAVYYFAAGFMWYIGNSKFDYWGQGTQVTVSS”, the “polyreactivity (PSR sort gate)” value is recorded as “high polyreactivity”.

With “QVQLVESGGGLVQAGGSLRLSCAASGRTLPINAMGWYIEAPGKERELVAAISTSGTRTYYADSVKGRFTISRDNAKNTVYLQMNSLKPEDTAVYYCNKDYWKVRSYDYCGQGTQVTVSS”, the “polyreactivity (PSR sort gate)” value is “low polyreactivity”.

Consider “QVQLVESGGGLVQAGGSLRLSCAASGRTLPYNAMAWYRQAPGKESELVAAITWSGGRTYYADSVKGRFTISRDNAKNTVYLQMNSLKPEDTAVYYCAAGKSSYGKPKYYYWGQGTQVTVSS”, for which the “polyreactivity (PSR sort gate)” value is given as “high polyreactivity”.

As to “QVQLVESGGGLVQAGGSLRLSCAASGRTLQSYAMGWYRQAPGKERELVAAITSTGTTYYADSVKGRFTISRDNAKNTVYLQMNSLKPEDTAVYYCAAGGSIVLGHYHYVKMYYWGQGTQVTVSS”, the “polyreactivity (PSR sort gate)” value is “high polyreactivity”.

As for “QVQLVESGGGLVQAGGSLRLSCAASGRTLQTYVMGWYRQAPGKERELVAAITRGGGSTYYADSVKGRFTISRDNAKNTVYLQMNSLKPEDTAVYYCAASALRFNSRFSHWYNYWGQGTQVTVSS”, the “polyreactivity (PSR sort gate)” value is “high polyreactivity”.

“QVQLVESGGGLVQAGGSLRLSCAASGRTLRGNAMGWYRQAPGKERELVAGITSGGSTNYADSVKGRFTISRDNAKNTVYLQMNSLKPEDTAVYYCAAAYYLSFGRYYTNYDYWGQGTQVTVSS”: the “polyreactivity (PSR sort gate)” value is on record as “high polyreactivity”.

For “QVQLVESGGGLVQAGGSLRLSCAASGRTLRLYAMGWSRQAPGKERELVAAISSRGRTYYADSVKGRFTISRDNAKNTVYLQMNSLKPEDTAVYYCNTAQFLREDYWGQGTQVTVSS”, the “polyreactivity (PSR sort gate)” value was “high polyreactivity”.

In the case of “QVQLVESGGGLVQAGGSLRLSCAASGRTLRPYAMGWYRQAPGKEREFVAAIRWSGGSTYYADSVKGRFTISRDNAKNTVYLQMNSLKPEDTAVYYCAASFLTYYLSLYDYWGQGTQVTVSS”, the “polyreactivity (PSR sort gate)” value is listed as “high polyreactivity”.

Consider “QVQLVESGGGLVQAGGSLRLSCAASGRTLRRYAMGGYRQAPGKERELVAAISSGVSTNYADSVKGRFTISRDNAKNTVYLQMNSLKPEDTAVYYCNKKRPVYALSIVPYYSWGQGTQVTVSS”, for which the “polyreactivity (PSR sort gate)” value is “high polyreactivity”.

As to “QVQLVESGGGLVQAGGSLRLSCAASGRTLSANAMGWYRQAPGKERELVATISTRGGRTYYADSVKGRFTISRDNAKNTVYLQMNSLKPEDTAVYYCARLPPGDMDYWGQGTQVTVSS”, the “polyreactivity (PSR sort gate)” value is listed as “low polyreactivity”.

Turning to “QVQLVESGGGLVQAGGSLRLSCAASGRTLSGYAMGWYRQAPGKERELVAAISRRGGRTYYADSVKGRFTISRDNAKNTVYLQMNSLKPEDTAVYYCAAQVYTKTGDWQFYYWGQGTQVTVSS”, the “polyreactivity (PSR sort gate)” value is given as “high polyreactivity”.

Turning to “QVQLVESGGGLVQAGGSLRLSCAASGRTLSGYVMGWYRQAPGKERELDAAIDWSGGTTYYADSVKGRFTISRDTAKNTVYVQMNSLKPEDTAVYYCAAEVLSWLYWPYYYWGQGSQVTVSS”, the “polyreactivity (PSR sort gate)” value is recorded as “high polyreactivity”.

As to “QVQLVESGGGLVQAGGSLRLSCAASGRTLSRNAMGWYRQAPGKEREFVAAISQRGGSTYYADSVKGRFTISRDNAKNTVYLQMNSLKPEDTAVYYCARRYNAQDYARFDYWGQGTQVTVSS”, the “polyreactivity (PSR sort gate)” value was “high polyreactivity”.

For the sequence “QVQLVESGGGLVQAGGSLRLSCAASGRTLSRYTMGWYRQAPGKERELVAAISTSGSTYYADSVKGRFTISRDNAKNTVYFQMNSLKPEDTAVYYCNAVRRFLQYATGYDYWRQGTQVTVSS”, the “polyreactivity (PSR sort gate)” value is listed as “high polyreactivity”.

Take “QVQLVESGGGLVQAGGSLRLSCAASGRTLSTNGMGWYRQAPGKERELVATITRRGGRTYYADSVKGRFTISRDNAKNTVYLQMNSLKPEDTAVYYCATEQADRRVTYNYWGQGTQVTVSS”: the “polyreactivity (PSR sort gate)” value is reported as “high polyreactivity”.

In the case of “QVQLVESGGGLVQAGGSLRLSCAASGRTLTIYAMGWYRQAPGKERELVATIRSSGSTNYADSVKGRFTISRDNAKNTVYLQMNSLKPEDTAVYYCSARGFYPTNVGKYNYWGQGTQVTVSS”, the “polyreactivity (PSR sort gate)” value is “high polyreactivity”.

For “QVQLVESGGGLVQAGGSLRLSCAASGRTLTLNAMGWYRQAPGKERELVAAISGSGGRTFYADSVKGRFTISRDNAKNTVYLQMNSLKPEDTAVYYCAADYFYLKWYEYWGQGTQVTVSS”, the “polyreactivity (PSR sort gate)” value is reported as “high polyreactivity”.

With “QVQLVESGGGLVQAGGSLRLSCAASGRTLTRYTMGWYRQAPGKERELVATISRSGGNTHYADSLKGRFTISRDNAKNTVYFQMNSLKPEDTAVFYCNAVRYAIYGYDYWGQGTQVTVSS”, the “polyreactivity (PSR sort gate)” value is reported as “high polyreactivity”.

“QVQLVESGGGLVQAGGSLRLSCAASGRTLTYNVMGWYRQAPGKERELVASISSSGSSTHYADSVKGRFTISRDNAKNTVYLQMNSLKPEDTAVYYCAVEFWRPFWTRFDYWGQGTQVTVSS”: the “polyreactivity (PSR sort gate)” value was “high polyreactivity”.

As to “QVQLVESGGGLVQAGGSLRLSCAASGRTLVSYAMGWYRQAPGKERELVATISWSGGSTYYADSVKGRFTISRDNAKNTVYLQMYSLKPEDTAVYYCNRSLTGYDELGYPVPYTYDYWGQATQVTVSS”, the “polyreactivity (PSR sort gate)” value is given as “low polyreactivity”.

As to “QVQLVESGGGLVQAGGSLRLSCAASGRTLWVYAMGWYRQAPGKERELVAAITSSGVSTDYADSVKGRFTISRDNAKNTVYLQINSLKPEDTAVYYCAKRYWSRYAQYDYWGQGTQVTVSS”, the “polyreactivity (PSR sort gate)” value was “low polyreactivity”.

With “QVQLVESGGGLVQAGGSLRLSCAASGRTLWYYTMGWYRQAPGKERELVADITRGTSTNYADSVKGRFTISRDNAKNTVYLQMNSLKPEDTAVYSCNRAHGRSRYSRDYDSWGQGTQVTVSS”, the “polyreactivity (PSR sort gate)” value is “low polyreactivity”.

“QVQLVESGGGLVQAGGSLRLSCAASGRTLYINAMGWYRQAPGKERELVAAIRRGGSTYADSVKGRFTISRDNAKNTVYLQMNSLKPEDTAVYYCAADVPRGKYKGDYWGQGTQVTVSS”: the “polyreactivity (PSR sort gate)” value is “high polyreactivity”.

Take “QVQLVESGGGLVQAGGSLRLSCAASGRTLYLYAMGWYRQAPGKERELVAAITYGGGSTYYADSVKGRFTISRDNAKNTVYLQMNSLKPEDTAVYYCNAPGDGYLYDHTYDYWGQGTQVTVSS”: the “polyreactivity (PSR sort gate)” value is recorded as “low polyreactivity”.

With “QVQLVESGGGLVQAGGSLRLSCAASGRTLYLYAMGWYRQAPGKERELVAGITWSGGSTYYADSVKGRFTISRDNAKNTVYLQMNSLKPEDTAVYYCAAVSYPDYDYWGQGTQVTVSS”, the “polyreactivity (PSR sort gate)” value is “low polyreactivity”.

On to “QVQLVESGGGLVQAGGSLRLSCAASGRTLYNYTMGWYRQAPGKERELVATINFSGGSTYYADSVKGRFTISRDNAKNTVYLQMNSLKPEDTAVYYCNARGYHYAYKGAYLGDDYWGQGTQVTVSS”, for which the “polyreactivity (PSR sort gate)” value is recorded as “low polyreactivity”.

Regarding “QVQLVESGGGLVQAGGSLRLSCAASGRTLYRYAMGWYRQAPGKERELVAAIRSGGRTNYADSVKGRFTISRDNAKNTVYLLMNSLKPEDTAVYYCAARTLRYPSTYDYWGQGTQVSVSS”, the “polyreactivity (PSR sort gate)” value is “high polyreactivity”.

As for “QVQLVESGGGLVQAGGSLRLSCAASGRTLYWYAMGWYRQAPGKEREFVAAITWRGGSTSYADSVKGRFTISRDNAKNTVYLQMNSLKPEDTAVYYCAASSFRSYYSGKYDYWGQGTQVTVSS”, the “polyreactivity (PSR sort gate)” value is “high polyreactivity”.

In the case of “QVQLVESGGGLVQAGGSLRLSCAASGRTNKSNTLGWYRQEPGKQMELVAAISWRVGSTYYADSVKGRFTISRDNAKNTVYLQMNSLKPEDTAVYYCAARPWGYTVGSNYRYYLYGYWGLGTQVTVSS”, the “polyreactivity (PSR sort gate)” value is listed as “high polyreactivity”.
